experiment: soluble on expression in E. coli; label from the status in PepcDB or PDB records

Row | Sequence | soluble on expression in E. coli
1 | MDTNFKLSNCIGTVYRDGQVAFSKDGYSVISPIGNKLSIFDLRNNTSKTLDIDCNYNIKRLSISPSGYHLLASDERGVVHFVHLLSEFKIYTFRSNKPIGSLQWSPDATRVAICRENDLQIHEFGKSIENKVYNPFSLSRTYKLSSDSLKTIDWSDDANLLVSGGEDRVVRVVGAKDFKNLFIHPLASHKGYIVNCQFMKNSYDMITVCKRGLANVWTCNLRPGELVEGIWKKDEEGSDDIEMLEDGEQKVEKIFFEKTKKYWLSESSGSGKSVDVTAARFHKETNILATAFNNGVIVLHEIPSFALVHNLRVSEMRIQTVAWNLTGDWLAIGCGKGSTAQLVVWEWQSESYVMKQQAHSLRITTAEYSPDGSLMATGAEDGKVKIWNSRSSFCTVTFDEHTSGVTAVKWTQSGRAILSASLDGTVRAHDLKRYRNFRTLVCPEPTQLATLAVDKAGDLVIAGAKEVFNIYIWSFETGHLLDILSGHESAISSIDIHGNHIVSGSWDRTIKMWTIVDSQAETVEVSHEALDVKFSPAGDEIAVLTSDGVITFFEAKEMINLGSIDTKLDTDPARGSRDTITRQSAAKTKTFTRIRFSPDGNLLLAGGESNNFCLYSVPERMILKKWQITANRSLDGVILDFNRRNFTEFGNMQLVDTSDEEDELEPNNKMSIKLPGTKNFDLGERRARPEVNIYEVTYCPTGRRFAICSTEGVSVYSLDTISMFDPFQLDSQTNAEVIKRAVWNNDYSTAIMASLRLNNAQYITECLESTSISQIPLVASSLPLMYAERLLKWMVEGNVMSSTRHVHFYMIWLRAILQHHGMQLKGRADVATLTGIQQIVAHHQQHITKLANQNKFALNWLVKIRQSKKSVKKEEEEEEDVSDESDDEDIEDESAGSDDEDSDDSVEIIE | not soluble
2 | MDTPRPQLLDFQFHQNNDSFTLHFQQRLILTHNKDNPCLWIGSGIADIDMFRGNFSIKDKLQEKIALTDAIVSQSPDGWLIHFSRGSDISATLNISADDQGRLLLELQNDNLNHNRIWLRLAAQPEDHIYGCGEQFSYFDLRGKPFPLWTSEQGVGRNKQTYVTWQADCKENAGGDYYWTFFPQPTFVSTQKYYCHVDNSCYMNFDFSAPEYHELALWEDKATLRFECADTYISLLEKLTALLGRQPELPDWIYDGVTLGIQGGTEVCQKKLDTMRNAGVKVNGIWAQDWSGIRITSFGKRVMWNWKWNSENYPQLDSRIKQWYQEGVQFLAYINPYVASDKDLCEEAAQHGYLAKDASGGDYLVEFGEFYGGVVDLTNPEAYAWFKEVIKKNMIELGCGGWMADFGEYLPTDTYLHNGVSAEIMHNAWPALWAKCNYEALEETGKLGEILFFMRAGSTGSQKYSTMMWAGDQNVDWSLDDGLASVVPAALSLAMTGHGLHHSDIGGYTTLFEMKRSKELLLRWCDFSAFTPMMRTHEGNRPGDNWQFDGDAETIAHFARMTTVFTTLKPYLKEAVALNAKSGLPVMRPLFLHYEDDAHTYSLKYQYLLGRDILVAPVHEEGRSDWTLYLPEDNWVHAWTGEAFRGGEVTVNAPIGKPPVFYRADSEWAALFASLNSI | not soluble
3 | MDVDLASVEVVFAQKLACGEPATRQRALRVLHDWIRDQSAKKHFDDADLMRLCKGLHYVMWMQDKMILQEELADRIGGLINIFTSEEEKVRFVACFLKSLSKEWPHIDRWRMDKFLMEVRRMVRACFTHLAELKWKKDIRDEYWKVFQETTISTDKSFNEALKFHFASILLDELDAAGGLTKKQVTACLKPYIELLGNKDISEYLFTSLYEEIFKTILQQKSDLITAVEEGEEMDQGGIEFSYKEIGALLFEVGKQEHLNAKRRKKIYDLVKKFDKSSRGQDPLHFETPVPKERLTRHDYEEAEKKAIVLANSFKQERKSSRKVKSQIKKRAREAAEAARQENGDDVPDDEIAEVKKGNGKKTAVPKVKKGRPLLKAKGVGKKRMVGGLKRKAGKKN | not soluble
4 | MDVRELAIQQLKTVLDPELGINVVDLGLIYDLKIEDGHINVLMTLTTPGCPLHDSIAGGVKRALEQIDGVRDVRVQVTWNPPWTPERMSEEALRQLGHFS | not soluble
5 | MDVSDSIDWSKMTLQKISVRIEGHATSVSLEQPFLDILKTIARKKGQSLAFIITDIDSKRPQQVNLSSSLRIYALQSVLIQRL | not soluble
6 | MDWGTELWDQFEVLERHTQWGLDLLDRYVKFVKERTEVEQAYAKQLRSLVKKYLPKRPAKDDPESKFSQQQSFVQILQEVNDFAGQRELVAENLSVRVCLELTKYSQEMKQERKMHFQEGRRAQQQLENGFKQLENSKRKFERDCREAEKAAQTAERLDQDINATKADVEKAKQQAHLRSHMAEESKNEYAAQLQRFNRDQAHFYFSQMPQIFDKLQDMDERRATRLGAGYGLLSEAELEVVPIIAKCLEGMKVAANAVDPKNDSHVLIELHKSGFARPGDVEFEDFSQPMNRAPSDSSLGTPSDGRPELRGPGRSRTKRWPFGKKNKTVVTEDFSHLPPEQQRKRLQQQLEERSRELQKEVGQREALKKMKDVYEKTPQMGDSASLEPQIAETLSNIERLKLEVQKYEAWLAEAESRVLSNRGDSLSRHARPPDPPASAPPDSSSNSASQDTKESSEEPPSEESQDTPIYTEFDEDFEEEPTSPIGHCVAIYHFEGSSEGTISMAEGEDLSLMEEDKGDGWTRVRRKEGGEGYVPTSYLRVTLN | soluble
7 | MDYEKTLLMPKTDFPMRGGLPNKEPQIQEKWDAEDQYHKALEKNKGNETFILHDGPPYANGNLHMGHALNKILKDFIVRYKTMQGFYAPYVPGWDTHGLPIEQALTKKGVDRKKMSTAEFREKCKEFALEQIELQKKDFRRLGVRGDFNDPYITLKPEYEAAQIRIFGEMADKGLIYKGKKPVYWSPSSESSLAEAEIEYHDKRSASIYVAFNVKDDKGVVDADAKFIIWTTTPWTIPSNVAITVHPELKYGQYNVNGEKYIIAEALSDAVAEALDWDKASIKLEKEYTGKELEWVVAQHPFLDRESLVINGDHVTTDAGTGCVHTAPGHGEDDYIVGQQYELPVISPIDDKGVFTEEGGQFEGMFYDKANKAVTDLLTEKGALLKLDFITHSYPHDWRTKKPVIFRATPQWFASISKVRQDILDAIENTNFKVNWGKTRIYNMVRDRGEWVISRQRVWGVPLPVFYAENGEIIMTKETVNHVADLFAEHGSNIWFEREAKDLLPEGFTHPGSPNGTFTKETDIMDVWFDSGSSHRGVLETRPELSFPADMYLEGSDQYRGWFNSSITTSVATRGVSPYKFLLSHGFVMDGEGKKMSKSLGNVIVPDQVVKQKGADIARLWVSSTDYLADVRISDEILKQTSDDYRKIRNTLRFMLGNINDFNPDTDSIPESELLEVDRYLLNRLREFTASTINNYENFDYLNIYQEVQNFINVELSNFYLDYGKDILYIEQRDSHIRRSMQTVLYQILVDMTKLLAPILVHTAEEVWSHTPHVKEESVHLADMPKVVEVDQALLDKWRTFMNLRDDVNRALETARNEKVIGKSLEAKVTIASNDKFNASEFLTSFDALHQLFIVSQVKVVDKLDDQATAYEHGDIVIEHADGEKCERCWNYSEDLGAVDELTHLCPRCQQVVKSLV | soluble
8 | MDYFPVISVDLQSGRRVVSVEYFRGDGPPRIPYSMVGPCCVFLMHHRPSHEVRLRFSDFYNVGEFPYRVGLGDFASNVAPPPAKPFQRLIDLIGHMTLSDFTRFPNLKEAISWPLGEPSLAFFDLSSTRVHRNDDIRRDQIATLAMRSCKITNDLEDSFVGLHRMIATEAILRGIDLCLLPGFDLMYEVAHVQCVRLLQAAKEDISNAVVPNSALIVLMEESLMLRSSLPSMMGRNNWIPVIPPIPDVEMESEEESDDDGFVEVD | not soluble
9 | MDYKVSVLIVCYNQEKYIKKALESVLSQKVNFNYEIVVCDDCSSDRTFNILQEYKSKLGSKLNLIRNYKNLGITLNYKNGFKNCKGEYIAVLEGDDYWIQKSKLKRQVSFLESNRDCSLVFNKIVLDYGDEKINNLIYPFNDIRKKFSARELVRSNFIQNFSCCMYRKSSIRKLRESIYDMVVYDWMFNMAVAQFGLIGYIPNYMTSHRILKSGLWSGKSKMENLQMISKCIDQYDSFFKYKYRKEFSQNKQEVLQALRRLVMVNENGLEHHHHHH | soluble
10 | MDYRVLLYYKYVTIDDPETFAAEHLKFCKEHHLKGRILVSTEGINGTLSGTKEDTDKYIEHMHADNRFADLTFKIDEAESHAFKKMHVRPRREIVALDLEEDINPREITGKYYSPKEFKAALEDENTVILDARNDYEYDLGHFRGAIRPDITRFRDLPEWVRNNKEQLDGKNIVTYCTGGIRCEKFSGWLVKEGFENVGQLHGGIATYGKDPETKGQYWDGKMYVFDERISVDVNQIDKTVIGKEHFDGTPCERYINCANPECNKQILVSEENEEKYLGACSYDCAKHERNRYVARHHISNEEWQRRLNNFKDVPEHTHA | not soluble
11 | MEAFIRSDQYNFIKSQAYILANGHATANDRGVIQALKSLAIEKIIHVFENLTDEQKELIDTVLTVQNREDAESFLTKINPYVIPFQEVTAQTLKKLFPKAKKLKLPDMEEMDMKEISYLSWVDKGSSRKFIIAKNDKNKFVGLQGTFQSLNKKSICSLCHGHEEVGMFLVEIKGDIPGTFVKKGNYICKDGVACNQNMKSLDKLQDFIERLKK | not soluble
12 | MEAKQRIIPAIKTMKQFDAFLSSGYTVGVLLEVHIAQLKSIFAYARRHGKELIVHVDLVQGLSHDEHAAEYLCQEFRPHGLISTKAGVIMKARQKRVLAVQRIFLLDSHALEKSYQLIAKTNPDCIEVIPGAMPHIIREVKERTGKPIYAGGLIRTVDDVERALAAGAAAVTTSNETLWRHYNG | not soluble
13 | MEASLYSRVGDKVVCQLCWRFCKLGDGEEGHCRVRRNEGGKIFTTTYGKLSHLESRPIEIKPFFHFLPGSTSMTFSTYSCNFDCPWCQNWSISKATPPEALRETSPEEVVDLALIMGDKSTCASLNEPTLLYEYLLDVFRLAREKGLKNTMVSNGYMSILALKNLKNAGLDAINIDVKGDERVYRDYCNAEVEYVWRVIEKATKLGIHVEVVCLLVSNVVDEEVVREIVREHLRRAGSSIPIHFTRYFPAYRFTAPPTRIEFLEWAVKHAYKEGAEFAYIGNVPGHRFENTHCPDCGELLIRRYSFSTVDNRIRSGCCPKCGREIYGVWV | not soluble
14 | MEAYLKKLCFEYQVEEKEVKELLARMERVYLDKGETIASATMPEQSLYIIVSGILHTFTTQQGEDKTVRFLSEGDAILCYNTSKHSVKTLTRCVAYYISEDEIEELCATSITFSNLIRQMMEYQFYLKEEMSVNARKLTIRERYLSLLSEIPDILYRVPLKYITYYLGADVTSLGYLAGSCK | not soluble
15 | MEDDMSVVDNIRFTFLYIEFYSMGRTWVYPESVIPYSIFRYIEKGKAELCIDGEEIIVEENQIVYIPQGCKMSCRALGESFEFYSLRFTTSVFYEGEDMLAEYYGIPRVSVNEGEDVYFKEIYKWVKKDSMVKKCFVRGNLDLLIGSLAMHGNKVDKVTGDFVETIEEKSLRDRNSKKNEQIDPRIYIVADYIILHPSEKYTPQKMAEMADLSKQRFSSLFKINMGKTPMEYVREIRLTTAARALLVSNDNINDIAYACGYEDTNYFIREFKSAFGFTPNQYRKVARE | not soluble
16 | MEDELEKYKRENADLKKEIERLKNSSASNTYKVIFEASPDILIQLNADYKIIVIHIPNIEEERVNTVVGKDIFDVTPEYTHVKMKNALTSVFRDGEVVKYFSEGETMGSYRYYDNYLSPIKDAEGNITTVYFRSRDIT | not soluble
17 | MEDKIGTTLTTRTVTGSLTPFIPIQDGDQLLVNGRSQDLYGWIYITELLDVINVYPLSLNNNSIVNFQPGTNIFFQLESSSYSSMRVPVARNVAIGKTTTLKGYVGLPDNAGIKFFDDSSIKK | not soluble
18 | MEDKRLIREKILRNLNSIDKVEHRERSIKLAEKLFLLPEWENAKVVGITLARHPEIETEAIILQAKKEGKTILIPKTYYPSRKMEFKKMDSIHPLIKSKFGILEPNELAETVDKKVIDLLIVPGVAFNKDHYRIGFGGGFYDRFLTDFQGHTVSLYLYEQQIEFTPETHDEPVSILIGGLEHHHHHH | not soluble

From the DeepSol protein solubility set
